Measurements: patent US20260232732A1 (FUNDACI INSTITUT DE RECERCA CONTRA LA LEUC MIA JOSEP …, published 2026)

Legend:
Assay in all cases: ELISA naked peptide; scFv 1 ug/mL; repI
naked peptide TDFTSPIPNM = biological target: T1, naked peptide TDFTSPIPNM (human)
T1 peptide: TDFTSPIPNM
Experimental: (§1) The peptides were synthesized naked or with a N-terminal Biotin modification with a purity of >98%. All four scFvs were verified by ELISA that can be detected with anti-His antibodies. ELISA was performed for scFv-peptide binding validation. Briefly, naked peptides were coated (50 μg/mL) in 0.58M carbonate-bicarbonate buffer pH9.5, 100 μL/well, 4° C. O/N. Then after blocking (3% BSA-PBS, 300 μL/well 37° C. 1.5 h) and washing (PBS+Tween-20 0.05% v/v (0.05% PBST), wells were incubated with each purified scFv antibody at concentration of 1 μg/mL in PBS at 37° C. 1 h. After washing (0.05% PBST), wells were incubated with secondary antibodies (goat anti-His IgG-HRP) in PBS, 37° C., 30 min. After washing, and incubation with TMB substrate, reactions were stopped with 2M HCl and reading was quantified at OD450.
(§2) Then a library of overlapping peptides were designed and constructed separately to produce 16 different peptides, covering full antigen sequence of total 48 aa. Peptide size was 10aa, with 7aa overlapping and ELISA screening of scFv against each peptide was performed in duplicate. Screening was performed using naked peptides in a standard plate or biotinylated peptides using avidin-plates.

naked peptide MTPTDFTSPI = biological target: T2, naked peptide MTPTDFTSPI (human)
T2 peptide: MTPTDFTSPI
Experimental: as §1, §2

naked peptide FNFTDFYCEK = biological target: T3, naked peptide FNFTDFYCEK (human)
T3 peptide: FNFTDFYCEK
Experimental: as §1, §2

naked peptide TSPIPNMADD = biological target: T4, naked peptide TSPIPNMADD (human)
T4 peptide: TSPIPNMADD
Experimental: as §1, §2

naked peptide KNNVRQFAS = biological target: T5, naked peptide KNNVRQFAS (human)
T5 peptide: KNNVRQFAS
Experimental: as §1, §2

naked peptide DYGSESTSSM = biological target: T6, naked peptide DYGSESTSSM (human)
T6 peptide: DYGSESTSSM
Experimental: as §1, §2

naked peptide YCEKNNVRQF = biological target: T7, naked peptide YCEKNNVRQF (human)
T7 peptide: YCEKNNVRQF
Experimental: as §1, §2

naked peptide SESTSSMEDY = biological target: T8, naked peptide SESTSSMEDY (human)
T8 peptide: SESTSSMEDY
Experimental: as §1, §2

naked peptide TSSMEDYVNF = biological target: T9, naked peptide TSSMEDYVNF (human)
T9 peptide: TSSMEDYVNF
Experimental: as §1, §2

naked peptide MADDYGSEST = biological target: T10, naked peptide MADDYGSEST (human)
T10 peptide: MADDYGSEST
Experimental: as §1, §2

naked peptide SSMEDYVNFN = biological target: T11, naked peptide SSMEDYVNFN (human)
T11 peptide: SSMEDYVNFN
Experimental: as §1, §2

naked peptide YVNFNFTDFY = biological target: T12, naked peptide YVNFNFTDFY (human)
T12 peptide: YVNFNFTDFY
Experimental: as §1, §2

naked peptide SMEDYVNFNF = biological target: T13, naked peptide SMEDYVNFNF (human)
T13 peptide: SMEDYVNFNF
Experimental: as §1, §2

naked peptide IPNMADDYGS = biological target: T14, naked peptide IPNMADDYGS (human)
T14 peptide: IPNMADDYGS
Experimental: as §1, §2

naked peptide TDFYCEKNNV = biological target: T15, naked peptide TDFYCEKNNV (human)
T15 peptide: TDFYCEKNNV
Experimental: as §1, §2

naked peptide MEDYVNFNFT = biological target: T16, naked peptide MEDYVNFNFT (human)
T16 peptide: MEDYVNFNFT
Experimental: as §1, §2

B1: CCR9_HUM2 scFv (humanized anti-CCR9 scFv, SEQ ID NO: 17 with C-terminal 6xHis tag) (scFv)
scFv: QVQLVQSGAEVKKPGASVKVSCTASGYSFTDYIIYWVKQAHGQSLEWMGYIDPNNYNTRYSQKFQGKVTITVDKSSTSAYMELNSLTSDDTAVYYCARDVYWGQGTTVTVSSGGGGSGGGGSGGGGSGGGGSDVVMTQTPLSLSVTPGQPASISCRSSQSLVHSNGKTYLQWYLQKPGQSPKLLIYKVSNRFSGVPDRFSGSGSGTDFTLKISRVEAEDVGVYFCAQSTHVWTFGGGTKVEIKRAHHHHHH
Naked peptide TDFTSPIPNM
  OD450: 0.05 OD
Naked peptide MTPTDFTSPI
  OD450: 0.04 OD
Naked peptide FNFTDFYCEK
  OD450: 0.04 OD
Naked peptide TSPIPNMADD
  OD450: 0.03 OD
Naked peptide KNNVRQFAS
  OD450: 0.03 OD
Naked peptide DYGSESTSSM
  OD450: 0.02 OD
Naked peptide YCEKNNVRQF
  OD450: 0.04 OD
Naked peptide SESTSSMEDY
  OD450: 0.03 OD
Naked peptide TSSMEDYVNF
  OD450: 0.03 OD
Naked peptide MADDYGSEST
  OD450: 0.03 OD
Naked peptide SSMEDYVNFN
  OD450: 0.9 OD
Naked peptide YVNFNFTDFY
  OD450: 0.03 OD
Naked peptide SMEDYVNFNF
  OD450: 1.54 OD
Naked peptide IPNMADDYGS
  OD450: 0.02 OD
Naked peptide TDFYCEKNNV
  OD450: 0.05 OD
Naked peptide MEDYVNFNFT
  OD450: 0.84 OD

B2: Comparative antibody 1 (Comp-1) scFv, SEQ ID NO: 10 from WO2023/037125 A1, His-tagged (scFv)
scFv: QVQLKESGPGLVQPSQTLSLTCTVSGFSVASYDMHWVRLPPGKGLEWMGIIWANGNTHYNSGLKSRLSISRDTSKSQVFLKMNSLQTEDTAIYFCTRGGFAYWGQGTLVTVSSGGGGSGGGGSGGGGSGGGGSDVVMTQTPVSLSVSLGGQVSISCRSSQSLVHNNGNTYLSWYLQKPGQSPQLLIYKVSNRFSGVSDRFSGSGSGTDFTLKISRVEPDDLGVYYCGQGTQYPTFGGGTKLELKHHHHHH
Naked peptide TDFTSPIPNM
  OD450: 0.03 OD
Naked peptide MTPTDFTSPI
  OD450: 0.05 OD
Naked peptide FNFTDFYCEK
  OD450: 0.02 OD
Naked peptide TSPIPNMADD
  OD450: 0.05 OD
Naked peptide KNNVRQFAS
  OD450: 0.02 OD
Naked peptide DYGSESTSSM
  OD450: 0.02 OD
Naked peptide YCEKNNVRQF
  OD450: 0.02 OD
Naked peptide SESTSSMEDY
  OD450: 0.03 OD
Naked peptide TSSMEDYVNF
  OD450: 0.03 OD
Naked peptide MADDYGSEST
  OD450: 0.02 OD
Naked peptide SSMEDYVNFN
  OD450: 0.07 OD
Naked peptide YVNFNFTDFY
  OD450: 0.05 OD
Naked peptide SMEDYVNFNF
  OD450: 0.02 OD
Naked peptide IPNMADDYGS
  OD450: 0.01 OD
Naked peptide TDFYCEKNNV
  OD450: 0.03 OD
Naked peptide MEDYVNFNFT
  OD450: 0.05 OD
